From PMC6769508

Experiments:
[1] = target: SyKaiBDD, SyKaiB with Arg22 and Lys25 substituted with aspartate residues (Synechococcus elongatus PCC 7942) (UniProt Q79PF5)
[2] = target: SyKaiB, wild-type KaiB of Synechococcus elongatus PCC 7942 (Synechococcus elongatus PCC 7942) (UniProt Q79PF5)

| period of the in vitro oscillation of the phosphorylated KaiC level (SyKaiA 1.5 µM, SyKaiC 3.4 µM, SyKaiBDD 4.2 µM, 30 °C) [1] | period of the in vitro oscillation of the phosphorylated KaiC level (SyKaiA 1.5 µM, SyKaiC 3.4 µM, SyKaiBWT 4.2 µM, 30 °C) [2] | Binder |
| --- | --- | --- |
| 30.4 h | – | SyKaiBDD, SyKaiB with Arg22 and Lys25 substituted with aspartate residues (natural protein) MSPRKTYILKLYVAGNTPNSVDALDTLKNILEVEFQGVYALKVIDVLKNPQLAEEDKILATPTLAKVLPLPVRRIIGDLSDREKVLIGLDLLYGELQDSDDF |
| – | 23.2 h | SyKaiB, wild-type KaiB of Synechococcus elongatus PCC 7942 (natural protein) MSPRKTYILKLYVAGNTPNSVRALKTLKNILEVEFQGVYALKVIDVLKNPQLAEEDKILATPTLAKVLPLPVRRIIGDLSDREKVLIGLDLLYGELQDSDDF |
